Molecular target: T1, cytosolic fragment of human STX4 (residues 1-271 with 272C) (human, UniProt Q12846 1-271)
T1 construct: human STX4 lacking the transmembrane domain, residues 1-271; synthetic gene in NdeI/XhoI of pET28a(+); cysteine at position 272 ('residues 1-271 with 272C')
T1 chain: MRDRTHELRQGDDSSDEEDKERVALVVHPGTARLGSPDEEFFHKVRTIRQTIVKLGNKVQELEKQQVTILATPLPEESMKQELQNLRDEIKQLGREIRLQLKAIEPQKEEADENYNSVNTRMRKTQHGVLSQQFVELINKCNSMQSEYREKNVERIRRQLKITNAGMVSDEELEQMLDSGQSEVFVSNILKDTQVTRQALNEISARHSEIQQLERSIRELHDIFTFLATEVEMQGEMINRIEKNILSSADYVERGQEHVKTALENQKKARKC
Experiment: SEC; 100 mM (so in the source) of each protein mixed, overnight at RT; ENrich SEC 70 column in 20 mM HEPES pH 7.4, 100 mM NaCl, 0.2 mM TCEP, 1% CHAPS
Details: both partners purified

binding result: binds
B1: VAMP2(49-96) (domain or fragment, UniProt P63045 49-96, looked up)
chain: NVDKVLERDQKLSELDDRADALQAGASQFETSAAKLKRKYWWKNLKMM
notes: VAMP2, C-terminal half of the SNARE motif, residues 49-96; construct described previously (Pobbati, Stein and Fasshauer, 2006); that fragment is, as far as I recall, from rat; also called C-terminal half of the SNARE motif of VAMP2 (residues 49-96)

Reference: publication doi:10.1101/2023.07.13.548819, “Trafficking Machinery is Rapidly Primed to Facilitate Polarised IL-6 Secretion in Dendritic Cells” (bioRxiv, 2023)
